Data from the nanobody polyreactivity screen of Harvey et al. (2022).

Assay: yeast display, Sf9 membrane polyspecificity reagent, FACS + sequencing; frameworks hold sequencing errors
How it was run: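 Galactose induction of a Saccharomyces cerevisiae BJ5465 synthetic nanobody display library ran 36–48 hours. The cells were then stained for 1 hour at 4 °C with 10% biotinylated, detergent-solubilized Sf9 membrane reagent, pulled down on streptavidin microbeads and FACS-sorted into low and high (top ~1%) gates on expression and reagent-binding fluorescence. Labels for polyreactivity follow the gate of origin.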

| Sequence | polyreactivity (PSR sort gate) |
| --- | --- |
| QVQLVESGGGLVQAGGSLRLSCAASGRTFYWNAMGWYRQAPGKERELVASINGGGSTYYADSVKGRFTISRDNAKNTVYLQMNSLKPEDTAVYYCNVRYYFPRYQQRYQLNEYYYWGQGTQVTVSS | low polyreactivity |
| QVQLVESGGGLVQAGGSLRLSCAASGRIFYRYAMGWSRQAPGKERELVASITTSGDSTYYADSVKGRFTISRDNAKNTVYLQMNSLKPEDTAVYYCAARSYRGRRYDYWGQGTQVTVSS | high polyreactivity |
| QVQLVESGGGLVQAGGSLRLSCAASGSIYARNAMGWYRQAPGKERELVAAIRYSGGSTYYADSVKGRFTISRDNAKNTVYLQMNSLKPEDTAVYYCAARWGVFGYYYWGQVTQVTVSS | high polyreactivity |
| QVQLVESGGGLVQAGGSLRLSCAASGNIFSDYAMGWYRQAPGKERELVAAISSGGNTNYADSVKRRFSISRDNAKNTVYLEMNSLKPEDTAVYYCAAVYNTTYTLLPEYSDVKYYYWGQGTQVTVSS | low polyreactivity |
| QVQLVESGGGVVQAGGSLRLSCAASGFIFWLYAMGRYRQAPGKERELVATITYSDGSTYYADSVKGRFTISRDKANNTDYLQMNSLKPEDTAVYYCAAEVYYGYDYWGQGTQVTVSS | low polyreactivity |
| QVQLVESGGGLVQAGGSLRLSCAASGFTFHRYAMGWYRQAPGKERELVARINWSGGGTYYADSVKGRFTISRDNAKNTVYLQMNSLKPEDTAVYYCNARGVFYVYKHDYWGQGTQVTVSS | high polyreactivity |
| QVQLVDSAGCLVQAGGTLRLSGSASGSIFDAYAMGWYRQAPGKERELVASITSGGRTTYADSVKGRFTISRDNALNTVYLQMNSLKPEDTAVYYCAALRPGPRDDYWGQGSQVTVSS | high polyreactivity |
| QDQLVESGVGLVQEGGSLRLSCAASGSILKRYVMGWYRQAPGKERELVAAISSGSRTYYADSVKGRFTISRDNAKNTVYLQMNSLKPEDTAVYYCAADLTYKYHYDYWGQGTQVTVSS | high polyreactivity |
| QVQLVESGGGLVQAGGSLRLSCAASGSTFTGNAMGWYRQAPGKERELVAAISRSGGSTFYADSVKGRFTISRDNAKNTVYLQMNSLKPEDTAVYYCATRYVVDMDYWGQGTQVTVSS | high polyreactivity |
| QVQLVESGGGVVQAGGSLRVSCAASGRIFAPYAMGWYRQAPGKERELVAAISWRGSSTYYADSVKGRFTISRDNAKNTVSLQMNSLKPEDTAVYYCAAPSSKYWGQGTQVTVSS | low polyreactivity |
| QVQLVESGGGLVQAGGSLRLSCAASGRIFWANAMGWYRQAPGKERELVAAISYSGVSTYYADSVKGRFTISRDNAKNTVYLQMNSLKPEDTAVYFCAADRYRKYYYWGQGTQVTVSS | high polyreactivity |
| QVQLVESGGGLVQAGGSLRISCAASGLTFFRNAIGWYRQATGKERELVATITSTSSTNYADSVKVRFTISRDNSKNTVYLQMNSLKPEDTAVYYCAARTVGRKAGFDYWGQGTQVTVSS | high polyreactivity |
| QVQLVESVGGLVQAGVSLRLSSPATGSTIYFYAMGWYRQEPGKERELVAAISGSGGRKYYADSVKGRFTISRDNAKNTVYLQMNSLKPEDTAVYYCAAEWFPYSEREFLYYYWGQGTQVTVSS | high polyreactivity |
| QVQLVESGRRLVQAGGSLRLTCAASGSTFTRYAMGWYRQAPGKERELVASISGSGGRTYYADSVKGRFTISRDNAMNTVYLQMNSLKPEDTAVYYCAAKITRRYYPGYLFDYWGQGNQVTVSS | high polyreactivity |
| QVQLVESGGGLVQAGGSLRLSCAASGRTFYSYAMGWYRQAPGKERELVAAMTSDGGTYYADSVKGRFTISRDNAKNTVYLQMNSLKPEDTAVYYCAAELYYWYYYWGQGTKVTVSS | low polyreactivity |
| QVQLVESGGGLVQAGGSLRLSCAASGSIFYRYTMGWYRQAPGKERELVAVISRRGGSTYYADSVKGRFTISRDNAKNTVYLQMNSLKPEDTAVYYCAVRQYRTSVRQGNTLWDDYWGQGTQVTVSS | high polyreactivity |

| Sequence | polyreactivity (PSR sort gate) |
| --- | --- |
| QVQLVESGGGLVQAGGSLRLSCAASGRTFRAYVMGWYRQAPGKERELVAAITGDGGSTYYADSVKGRFTISRDNAKNTVYLQMNSLKPEDTAVYYCAAGYVTVYGYYEYWGQGTQVTVSS | high polyreactivity |
| QVQLVESGGGLVQAGGSLRLSCAASGSTFYRYVMGWYRQAPGKERELVAAITWRGGTTYYADSVKGRFTISRDNAKNTVYLQMNRLNPEDTAVYYCNADRYLGVSEYKTYEYEYWGQGTQVTVSS | low polyreactivity |
| QVQLVESGGGLVQAGGSLRISCAASGFTFKAYAMGWYRLAPGKERELVAAITKSGGRTFYADSVKGRFTISRDNAKNTVYLQMNSLKPEDTAVYYCAASYTVYYWGQGTQVTVSS | high polyreactivity |
| QVQLVESGGGLVQAGGSLLLSCAASGSTFYYNAMGWYRQATGKERELVARISRSGGSTYADSVKGRFTISRDNAKNTVYLQMNSLKPEDTAVYYCNADAYGTPEFTSYAVRYDYWGQGTQVTVSS | low polyreactivity |
| QVQLVESGGGLVQAGGSLRISCAASGRTLGAYALGWSRQAPGKERELVAVISRRGGSTYYADSVKGRFTISRVNAKNTVYLQMNSLKPEDSAVYYCARTTLLYRTLSPGEYWGQGTQVTVSS | high polyreactivity |
| QVQLVESGGGLVQAGGSLRLSCAASGSTFVYYDMGGYRPAPGKERELVADISDSGGSTNYADSVKGRFTISRDNAKNTVYLHMNSLKPEDTAVYYCAADSADPTEYDYWGQGTQVTVSS | low polyreactivity |
| QVQLVESGGGLVQAGGSLRLSCAASGSTFGPNAMGWYRQAPGKERELVAAITDSGVSTYYAVSVKGRFTISRDNAKYTVYLQMNSLKPEDTAVYYCATDWYLHRFDYWGQGTQVTVSS | low polyreactivity |
| QVQLVESGGGLVQAGGSLRLSCAASGSIFYIYAMGWYRQAHGKERELVAAISSGGATYADSVKGRFTISRDNAKNTVYLQMNSLKPEDTAVYYFAVDRAFRAQNYHEYDYWGQGTQVTVSS | low polyreactivity |
| QVQLVESGGGLVQAGGSLLLICAASGRTFPYNAMGWYRQAPGKEREFVAAISVGGGSTYADSVKGRFTISRDNAKNTVYLQMNSLKPEDTAVYYCAAAYTKLYYYWGQGTQVTVSS | low polyreactivity |
| QVQIVESGGCLVQAGGSLRLSCAASGRIIVRNAMGWYRQARGTERELVADITNGGSTNYADSVKGRFTISRDNAKNTVFLEMNSLKPEDTAVDFCAADTLGVYDGDYWGQGTQVTVSS | low polyreactivity |
| QVQLVESGGGLVQAGGSLRLSCAASGSIFWQYAMGWYRQAPGTERELVAAISSRGGSTYYADSVKGRFTISRDNAKNTVYLQMNTLKPEDTAVYYCAAHSVVRSYAARDSGYDYWGQGTQVTVSS | high polyreactivity |
| QVQLVESGGGLVQAGGSLRLSCAASGSTFYTNAMGWYRQAPGTERELVAAINYSGGSTYYADSVKGRFTISRDNAKNTVYLQMNSQTPEDTAVYYCATDLHWLVTKYGYWGQGTQVTVSS | low polyreactivity |
| QVQLVESGGGLVQAGGSLRLSCAASGIIFRGYVMGWYRQAPGKERELVADISRGGSTYYADSVKGRFTISRDNAKNTVYLQMNSQKPEDTAVYYCAKDYYACYWEMDYWGQGTQVTVSS | low polyreactivity |
| QVQLVESGGGLVQAGGSLRLSCAASGLIFRIYAMGWYRQAPGKETELVAAISNSGGYTYYADSVKGRFTISRDNAKNTVYLQMNSLKPEDTAVYYCAAELRLWPWRRFDYWGQGTQVTVSS | high polyreactivity |
| QVQLVESGGGLVQAGGSLRLSCAASGRIFVYNVMGWYRQAPGKERELVAAISWGTGSTYADSVKGRFTISRDNAKNSVNLQMNSLKPDDTAVYYCAKESTVRRYDYWGLGTQVTVSS | low polyreactivity |
| QVQLVESGGGLVQAGGSLRLSCAASGSTFYYYAMGWYRQAPGKERELVAAIDRDDRTNYADSVKGRFTISRDNAKNTVYLQMNSLKPEDTAVYYCAAVEIYEYDYWGQGTQVTVSS | low polyreactivity |
